Data as given in patent publication US11639389B2, “Binding molecules with modified J-chain” (IGM Biosciences, Inc., dated 2023).

Target: DR5 (TRAILR2) (Homo sapiens)
Test: cell-based or functional assay

Row | Binder | cell viability of COLO205 cells after 24 hours (Cell-Titer Glo)
1 | anti-DR5 IgM+wt J-chain (antibody) heavy: not shown light: SSELTQDPAVSVALGQTVRITCQGDSLRSYYASWYQQKPGQAPVLVIYGKNNRPSGIPDRFSGSSSGNTASLTITGAQAEDEADYYCNSRDSSGNHVVFGGGTKLTVLGQPKAAPSVTLFPPSSEELQANKATLVCLISDFYPGAVTVAWKADSSPVKAGVETTTPSKQSNNKYAASSYLSLTPEQWKSHRSYSCQVTHEGSTVEKTVAPTECS not shown | > 1000 fold, compared to the corresponding IgG
2 | anti-DR5 IgM (without J-chain) (antibody, V domains shown) VH: EVQLVQSGGGVERPGGSLRLSCAASGFTFDDYGMSWVRQAPGKGLEWVSGINWNGGSTGYADSVKGRVTISRDNAKNSLYLQMNSLRAEDTAVYYCAKILGAGRGWYFDLWGKGTTVTVSS VL: SSELTQDPAVSVALGQTVRITCQGDSLRSYYASWYQQKPGQAPVLVIYGKNNRPSGIPDRFSGSSSGNTASLTITGAQAEDEADYYCNSRDSSGNHVVFGGGTKLTVLG | > 1000 fold, compared to the corresponding IgG
